Results taken from US20180327499A1 (INSERM INSTITUT NATIONAL DE LA SANT ET DE LA RECHERCHE M …, published 2018).

How the values were obtained:
[1] = target: T1, recombinant human NKG2D/Fc chimera (R&D Systems) (human, UniProt P26718 78-216); experiment: ELISA on plate coated with Fc-NKG2D, dose-response, one site total binding fit
T1 construct: Bought reagent; The order Fc then NKG2D follows the printed name 'Fc-NKG2D'; also called Fc-NKG2D; NKGD2-Fc human; Fc part of the bought chimera not given
T1 sequence (looked up): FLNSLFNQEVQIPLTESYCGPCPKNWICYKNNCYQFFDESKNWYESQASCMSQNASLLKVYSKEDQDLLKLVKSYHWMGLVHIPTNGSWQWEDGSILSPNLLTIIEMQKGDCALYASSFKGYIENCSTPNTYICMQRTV

[2] = target: T2, NKG2D on HEK-293T cells co-transfected with NKG2D and DAP10 (UniProt P26718 1-216, limits assumed); experiment: flow cytometry on NKG2D/DAP10-transfected HEK-293 cells, one site total binding fit
T2 construct: whole, on cells; DAP10 is co-expressed for surface expression; also called NKG2D-DAP10 co-transfected HEK293T cells
T2 sequence (looked up): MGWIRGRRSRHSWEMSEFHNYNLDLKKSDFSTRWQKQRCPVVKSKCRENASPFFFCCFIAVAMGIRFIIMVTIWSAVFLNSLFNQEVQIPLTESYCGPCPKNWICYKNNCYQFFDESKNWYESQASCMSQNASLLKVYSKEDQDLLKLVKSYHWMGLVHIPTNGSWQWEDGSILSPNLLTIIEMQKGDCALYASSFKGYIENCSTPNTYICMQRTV

B1: sdAb ET2F9 (VHH)
VHH: QVQLVQSGGGLVQPGGSLRLSCAASGFTFDDYAMSWVRQAPGKGLEWVSAISWSGRTTYYAESMKGRFTTSRDNAKNTLYLQMNSLKPEDTALYYCARGDVAIRGNLDAWGQGTQVTVSS
notes: It carries a 6His tag (detected with anti-6His / anti-his antibodies); also called ET2F09; sdAb F9
For B1, the EC50 [1] was 44 nM and the Kd [2] was 625 nM.
